For data set [1], the target named is T1, PTB RRM1 WT (human, UniProt P26599-1 41-163). As to the kind of experiment: NMR; docked alpha3 66%; ITC (30 C) and NMR (40 C): 20 mM NaCl, 10 mM NaH2PO4 pH 6.5. EMSA: 20 mM NaH2PO4 pH 7.2, 100 mM NaCl, 5 mM MgCl2, 5% glycerol, 1 mM DTT, 50 ug/ml yeast tRNA, 40 ug/ml BSA, room temperature. Particulars: protein: recombinant; hairpin, loop UCUGU. Background: Mobility shift assays separate free from complexed probe on a gel.

Data set [2] deals with PTB RRM1 K94A (human, UniProt P26599-1 41-163, K94A). As to the kind of experiment: ITC; Kd1; almost 7-fold; ITC (30 C) and NMR (40 C): 20 mM NaCl, 10 mM NaH2PO4 pH 6.5. EMSA: 20 mM NaH2PO4 pH 7.2, 100 mM NaCl, 5 mM MgCl2, 5% glycerol, 1 mM DTT, 50 ug/ml yeast tRNA, 40 ug/ml BSA, room temperature. The following applies: protein: recombinant; tags: intein tag removed; label: 13C/15N in some NMR samples; hairpin, 5-nt loop UCUUU (positions 10-14). (ITC needs no label: the signal is the heat of the interaction.)

The target in data set [3] is PTB RRM1 L151G (human, UniProt P26599-1 41-163, L151G). As to the kind of experiment: NMR; alpha3 does not fold; ITC (30 C) and NMR (40 C): 20 mM NaCl, 10 mM NaH2PO4 pH 6.5. EMSA: 20 mM NaH2PO4 pH 7.2, 100 mM NaCl, 5 mM MgCl2, 5% glycerol, 1 mM DTT, 50 ug/ml yeast tRNA, 40 ug/ml BSA, room temperature. The following applies: protein: recombinant; tags: intein tag removed; label: 13C/15N in some NMR samples; hairpin, 5-nt loop UCUUU (positions 10-14).

The target in data set [4] is PTB RRM1 P142G (human, UniProt P26599-1 41-163, P142G). The data set is described as follows: NMR; alpha3 helicity increases on binding; ITC (30 C) and NMR (40 C): 20 mM NaCl, 10 mM NaH2PO4 pH 6.5. EMSA: 20 mM NaH2PO4 pH 7.2, 100 mM NaCl, 5 mM MgCl2, 5% glycerol, 1 mM DTT, 50 ug/ml yeast tRNA, 40 ug/ml BSA, room temperature. The following applies: protein: recombinant; tags: intein tag removed; label: 13C/15N in some NMR samples; hairpin, 5-nt loop UCUUU (positions 10-14).

Data set [5] concerns the target T1, PTB RRM1 WT. As to the kind of experiment: ITC; Kd1, two independent site model, 30 C; ITC (30 C) and NMR (40 C): 20 mM NaCl, 10 mM NaH2PO4 pH 6.5. EMSA: 20 mM NaH2PO4 pH 7.2, 100 mM NaCl, 5 mM MgCl2, 5% glycerol, 1 mM DTT, 50 ug/ml yeast tRNA, 40 ug/ml BSA, room temperature. The following applies: protein: recombinant; label: 13C/15N in some NMR samples; hairpin, 5-nt loop UCUUU (positions 10-14).

Data set [6] deals with PTB RRM1 N143G/R146G (human, UniProt P26599-1 41-163, N143G;R146G). The data set is described as follows: ITC; Kd1; up to 3-fold; ITC (30 C) and NMR (40 C): 20 mM NaCl, 10 mM NaH2PO4 pH 6.5. EMSA: 20 mM NaH2PO4 pH 7.2, 100 mM NaCl, 5 mM MgCl2, 5% glycerol, 1 mM DTT, 50 ug/ml yeast tRNA, 40 ug/ml BSA, room temperature. The following applies: protein: recombinant; tags: intein tag removed; label: 13C/15N in some NMR samples; hairpin, 5-nt loop UCUUU (positions 10-14).

Data set [7] has as its target T1, PTB RRM1 WT. As to the kind of experiment: NMR; docked alpha3 78%; ITC (30 C) and NMR (40 C): 20 mM NaCl, 10 mM NaH2PO4 pH 6.5. EMSA: 20 mM NaH2PO4 pH 7.2, 100 mM NaCl, 5 mM MgCl2, 5% glycerol, 1 mM DTT, 50 ug/ml yeast tRNA, 40 ug/ml BSA, room temperature. Particulars: protein: recombinant; hairpin, loop UCUU.
Data set [8] has as its target T1, PTB RRM1 WT. As to the kind of experiment: NMR; docked alpha3 55%; ITC (30 C) and NMR (40 C): 20 mM NaCl, 10 mM NaH2PO4 pH 6.5. EMSA: 20 mM NaH2PO4 pH 7.2, 100 mM NaCl, 5 mM MgCl2, 5% glycerol, 1 mM DTT, 50 ug/ml yeast tRNA, 40 ug/ml BSA, room temperature. Particulars: protein: recombinant; hairpin, loop UCGUU.
Data set [9] has as its target T1, PTB RRM1 WT. As to the kind of experiment: NMR; docked alpha3 49%; ITC (30 C) and NMR (40 C): 20 mM NaCl, 10 mM NaH2PO4 pH 6.5. EMSA: 20 mM NaH2PO4 pH 7.2, 100 mM NaCl, 5 mM MgCl2, 5% glycerol, 1 mM DTT, 50 ug/ml yeast tRNA, 40 ug/ml BSA, room temperature. The following applies: protein: recombinant; hairpin, UUCG tetraloop.
In data set [10] the target is T1, PTB RRM1 WT. The data set is described as follows: NMR; docked alpha3 79%; ITC (30 C) and NMR (40 C): 20 mM NaCl, 10 mM NaH2PO4 pH 6.5. EMSA: 20 mM NaH2PO4 pH 7.2, 100 mM NaCl, 5 mM MgCl2, 5% glycerol, 1 mM DTT, 50 ug/ml yeast tRNA, 40 ug/ml BSA, room temperature. The following applies: protein: recombinant; hairpin, loop GCUUU.
The target of data set [11] is T1, PTB RRM1 WT. As to the kind of experiment: NMR; 45 C; modest shift changes; ITC (30 C) and NMR (40 C): 20 mM NaCl, 10 mM NaH2PO4 pH 6.5. EMSA: 20 mM NaH2PO4 pH 7.2, 100 mM NaCl, 5 mM MgCl2, 5% glycerol, 1 mM DTT, 50 ug/ml yeast tRNA, 40 ug/ml BSA, room temperature. The following applies: protein: recombinant; single strand.
The target of data set [12] is T1, PTB RRM1 WT. The data set is described as follows: NMR; alpha3 formed as with SL UCUUU; ITC (30 C) and NMR (40 C): 20 mM NaCl, 10 mM NaH2PO4 pH 6.5. EMSA: 20 mM NaH2PO4 pH 7.2, 100 mM NaCl, 5 mM MgCl2, 5% glycerol, 1 mM DTT, 50 ug/ml yeast tRNA, 40 ug/ml BSA, room temperature. The following applies: protein: recombinant; hairpin, 9-nt loop with UUCUU at its 5' end.

By Kd is commonly meant the equilibrium constant for the complex coming apart.

T1 sequence (P26599 41-163): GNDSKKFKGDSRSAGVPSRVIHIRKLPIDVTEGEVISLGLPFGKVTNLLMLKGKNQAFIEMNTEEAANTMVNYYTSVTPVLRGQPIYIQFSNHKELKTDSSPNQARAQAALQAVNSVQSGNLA
Sequence of PTB RRM1 P142G (P26599 41-163 P142G): as the sequence (P26599 41-163) above, with P102G counted along it
Sequence of PTB RRM1 K94A (P26599 41-163 K94A): as the sequence (P26599 41-163) above, with K54A counted along it
Sequence of PTB RRM1 N143G/R146G (P26599 41-163 N143G/R146G): as the sequence (P26599 41-163) above, with N103G, R106G counted along it
Sequence of PTB RRM1 L151G (P26599 41-163 L151G): as the sequence (P26599 41-163) above, with L111G counted along it

Regarding GGGACCUGGUCUGUCCAGGUCCC (structured_RNA) [SL UCUGU], in [1], the binding result was “binds”.

Consider GGGACCUGGUCUUUCCAGGUCCC (structured_RNA) [SL UCUUU], for which the results for the binding signal in data set [2] and in data set [6] were ~7 fold loss of affinity vs WT and ~3 fold loss of affinity vs WT, respectively. Moreover, the binding result in data set [3] and in data set [4] was “binds” throughout. Besides, in data set [5], the Kd came out at 100 ± 20 nM.

Consider GGGACCUGGUCUUCCAGGUCCC (structured_RNA) [SL UCUU_], for which the binding result in [7] is on record as “binds”.

Turning to GGGACCUGGUCGUUCCAGGUCCC (structured_RNA) [SL UCGUU], the binding result in data set [8] is given as “binds”.

Consider GGGACCUGGUUCGCCAGGUCCC (structured_RNA) [SL UUCG], for which the binding result in data set [9] is “binds”.

With GGGACCUGGGCUUUCCAGGUCCC (structured_RNA) [SL GCUUU], in [10], the binding result was “binds”.

For the molecule CUCUCU (ssRNA) [CUCUCU ssRNA], the binding result in data set [11] is reported as “binds”.

Take GAUGGAUUCUUAUGCUCCAUC (structured_RNA) [hsa-mir-136 stem-loop]: in data set [12], the binding result is “binds”.
